Patent publication US20250019454A1 (BIOCYTOGEN PHARMACEUTICALS BEIJING, published 2025)

T1: ΔCRD3-TNFR2 protein (with CRD3 deletion), on CHO-S cells (human, UniProt P20333 23-461)
T1 construct: also called CHO-SΔCRD3-TNFR2; TNFR2 lacking CRD3
T1 sequence: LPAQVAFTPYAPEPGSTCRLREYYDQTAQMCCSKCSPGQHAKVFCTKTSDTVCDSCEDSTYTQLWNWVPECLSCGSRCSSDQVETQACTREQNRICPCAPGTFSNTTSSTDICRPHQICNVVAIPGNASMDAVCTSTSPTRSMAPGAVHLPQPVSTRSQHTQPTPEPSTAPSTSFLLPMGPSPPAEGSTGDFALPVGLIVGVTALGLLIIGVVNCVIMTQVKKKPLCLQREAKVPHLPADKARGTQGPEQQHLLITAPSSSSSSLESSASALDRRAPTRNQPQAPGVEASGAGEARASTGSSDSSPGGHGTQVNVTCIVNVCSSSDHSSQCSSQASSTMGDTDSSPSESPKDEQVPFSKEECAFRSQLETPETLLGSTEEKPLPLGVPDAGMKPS

T2: His-tagged human TNFR2 (Human TNFR2/CD120b/TNFRSF1B Protein, His Tag, Acrobiosystems Cat #: TN2-5227) (human, UniProt P20333 23-257)
T2 construct: Bought protein; also called hTNFR2-His; Recombinant human TNFR2 proteins with His-tag; not shown: His tag
T2 sequence: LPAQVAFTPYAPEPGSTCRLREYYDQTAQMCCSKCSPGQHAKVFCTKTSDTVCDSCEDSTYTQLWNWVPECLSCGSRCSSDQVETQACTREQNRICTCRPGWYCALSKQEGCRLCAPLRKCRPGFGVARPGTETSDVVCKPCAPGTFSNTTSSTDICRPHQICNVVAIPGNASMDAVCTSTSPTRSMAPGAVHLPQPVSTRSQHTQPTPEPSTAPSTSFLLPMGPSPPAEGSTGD

T3: mouse TNFR2 (on transfected CHO cells) (mouse, UniProt P25119 23-474)
T3 construct: also called mTNFR2
T3 sequence: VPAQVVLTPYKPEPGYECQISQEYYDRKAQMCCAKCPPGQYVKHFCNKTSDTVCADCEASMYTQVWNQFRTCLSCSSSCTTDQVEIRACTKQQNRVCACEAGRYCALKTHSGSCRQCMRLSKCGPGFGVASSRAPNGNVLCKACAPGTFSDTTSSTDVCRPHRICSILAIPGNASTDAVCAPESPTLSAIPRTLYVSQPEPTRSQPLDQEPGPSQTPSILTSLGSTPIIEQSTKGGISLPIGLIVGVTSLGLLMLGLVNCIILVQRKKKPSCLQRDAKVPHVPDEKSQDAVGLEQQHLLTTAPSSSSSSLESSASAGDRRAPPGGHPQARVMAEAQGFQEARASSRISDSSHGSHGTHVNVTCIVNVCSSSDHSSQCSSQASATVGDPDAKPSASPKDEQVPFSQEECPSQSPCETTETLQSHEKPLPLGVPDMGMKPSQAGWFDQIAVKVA

T4: dog (Canine) TNFR2 (on transfected CHO cells) (dog)
T4 construct: also called dTNFR2
T4 chain: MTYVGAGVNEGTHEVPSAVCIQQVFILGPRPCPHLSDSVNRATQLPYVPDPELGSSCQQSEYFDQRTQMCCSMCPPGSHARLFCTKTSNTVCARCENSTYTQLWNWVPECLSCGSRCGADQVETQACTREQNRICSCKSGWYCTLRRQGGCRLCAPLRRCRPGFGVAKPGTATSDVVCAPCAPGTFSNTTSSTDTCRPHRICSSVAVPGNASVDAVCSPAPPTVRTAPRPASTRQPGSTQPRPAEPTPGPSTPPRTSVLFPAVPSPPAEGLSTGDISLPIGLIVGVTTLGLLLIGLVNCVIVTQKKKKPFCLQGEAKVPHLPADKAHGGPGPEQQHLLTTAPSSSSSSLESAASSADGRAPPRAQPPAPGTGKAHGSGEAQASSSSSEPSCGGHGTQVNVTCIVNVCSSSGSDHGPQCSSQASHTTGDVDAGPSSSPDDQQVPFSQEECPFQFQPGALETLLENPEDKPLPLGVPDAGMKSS


Columns and labels:
[1] = biological target: T1, ΔCRD3-TNFR2 protein (with CRD3 …); assay: FACS on CHO-S cells with ΔCRD3-TNFR2, AF647 anti-human IgG Fc secondary
Description: TNFR2 has four cysteine rich domains (CRD). In another experiment, FACS was used to detect the binding of anti-hTNFR2 antibodies to TNFR2 proteins with different structural domains. Secondary antibody (Alexa Fluor® 647 AffiniPure F(ab′) 2 Fragment Goat Anti-Human IgG, Fcγ fragment specific, Jackson ImmunoResearch Laboratories, Inc., Cat #: 151524) was used. The fluorescence-labeled secondary antibody can attach to the Fc region of the anti-hTNFR2 antibodies so that the anti-hTNFR2 antibodies that are bound to the ΔCRD cells can be detected by FACS. Specifically, ΔCRD1-TNFR2 protein (with CRD1 deleteion), ΔCRD2-TNFR2 protein (with CRD2 deleteion), ΔCRD3-TNFR2 protein (with CRD3 deleteion) or ΔCRD4-TNFR2 protein (with CRD4 deleteion) were expressed in CHO-S cells respectively, and then the binding between the cells and different anti-hTNFR2 antibodies was detected.

[2] = biological target: T2, His-tagged human TNFR2 (Human …); assay: SPR Biacore 8K, antibody captured on Protein A chip, hTNFR2-His as analyte, 1:1 model
Protocol: The binding affinity of the anti-TNFR2 antibodies to human TNFR2 and TNFR1 (Tumor necrosis factor receptor 1) were measured using surface plasmon resonance (SPR) using Biacore (Biacore, INC, Piscataway NJ) 8K biosensor equipped with pre-immobilized Protein A sensor chips.
Purified anti-TNFR2 antibodies were diluted to 1 μg/mL and then injected into the Biacore 8K biosensor at 10 μL/min for about 50 seconds to achieve a desired protein density (e.g., about 50 response units (RU)). […] Dissociation was monitored for 600 seconds. The chip was regenerated after the last injection of each titration with Glycine (pH 2.0, 30 μL/min for 30 seconds).

[3] = biological target: T3, mouse TNFR2 (on transfected CHO cells); assay: flow cytometry on transfected CHO cells
Protocol: (§1) 30 μl CHO cells (1×10⁵ cells) were added to each well. 30 μl purified anti-TNFR2 antibodies (10 μg/mL) (as listed in Table 4) were added to each well and were incubated at 4° C. for 30 minutes.
(§2) After two washes with PBS (1600 rmp, 6 min), 50 μl of Alexa Fluor labeled anti-human IgG Fc antibody […] was added into each well 1:500 dilution, incubated at 4° C. for 15 minutes, followed by a PBS wash (1200 rmp, 5 min). The signals for AF647 were detected by flow cytometry.

[4] = biological target: T4, dog (Canine) TNFR2 (on transfected CHO …); assay: flow cytometry on transfected CHO cells
Protocol: as §1, §2

Row | positive rate of binding (% of cells) [1] [%] | Kd [2] [nM] | koff [2] [s⁻¹] | kon [2] [M⁻¹ s⁻¹] | binding result [3] | binding result [4] | Binder
1 | 0.52 | 1.36 | 0.00126 | 924000 | no binding (tested: 10 µg/mL) | no binding (tested: 10 µg/mL) | BC-1A8-IgG1 (antibody, V domains shown, Fully human VH/VL joined to the human IgG1 subtype, kappa light chain (RenMab mice)) VH: QVQLQQSGPGLVKPSQTLSLTCAISGDSVSSNSAAWNWIRQSPSRGLEWLGRTYYRSKWYNDYALSVKSRITINPETSKNQFSLQLNSVTPEDTAVYYCAREDGVGGTKDYFDYWGQGTLVTVSS VL: DIQMTQSPSSLSASVGDRVTITCQASQDIDNYLNWYQQKPGKAPKLLIYDVSNLEIGVPSRFSGSGSGTDFTFTISSLQPEDIATYYCQQYDNLPLTFGQGTRLEIK
2 | 0.47 | 2.21 | 0.00159 | 718000 | no binding (tested: 10 µg/mL) | no binding (tested: 10 µg/mL) | BC-1F4-IgG1 (antibody, V domains shown, Human VH/VL joined to the human IgG1 subtype) VH: QVQLQQSGPGLVKPSQTLSLTCAISGDSVSSDSSAWNWIRQSPSRGLEWLGRTYYRSKWYNDYTVSVKSRITINPDTSKNQFSLQLNSVTPEDTAVYYCAREDGVGGTKDYFDYWGQGTLVTVSS VL: DIQMTQSPSSLSASVGDRVTITCQASQDISNYLNWYQQKPGKAPKLLIYDASNLETGVPSRFSGSGSGTDFTFTINSLQPEDFATYFCQQYDNLPITFGQGTRLEIK
3 | 23.1 | 5.1 | 0.000467 | 91500 | no binding (tested: 10 µg/mL) | no binding (tested: 10 µg/mL) | BC-1F10-IgG1 (antibody, V domains shown, Human VH/VL joined to the human IgG1 subtype) VH: QVQLQQWGAGLLKPSETLSLICAVYDGSFSGDYWSWIRQPPGKGLEWIGEINHSGSTNYNPSLKSRVTISVDTSKNQFSLKLSSVTAADTAVYYCARGHWNYDYYYGMDVWGQGTTVTVSS VL: not shown
4 | – | 3.89 | 0.00644 | 1.66e+06 | no binding (tested: 10 µg/mL) | no binding (tested: 10 µg/mL) | BC-1B6-IgG1 (antibody, V domains shown, Human VH/VL joined to the human IgG1 subtype) VH: QVQLVESGGGVVQPGRSLRLSCAASGFTFSNFGMHWVRQAPGKGLEWVAVIWYEGSDKYYADSVKGRFTISRDNSKNTLYLQMNSLRAEDTAVYYCARDSSWGFLLYGMDVWGQGTTVTVSS VL: DVVMTQSPLSLPVTLGQPASISCRSSRSLEYSDGNTYLNWFQQRPGQSPRRLIYKVSNRDSGVPDRFSGSGSGTAFTLKISGVEAEDVGVYYCMQGTHWPPTFGGGTKVEIK
5 | 0.81 | 9.5 | 0.00115 | 121000 | no binding (tested: 10 µg/mL) | no binding (tested: 10 µg/mL) | BC-1C3-IgG1 (antibody, V domains shown, Human VH/VL joined to the human IgG1 subtype) VH: QVQLVESGGGVVHPGKSLRLSCAASGFTFNIYGMHWVRQAPGKGLEWVALISYDGNDKYFADSVKGRFTISRDNSKNTLYLQMNSLRAEDTAVYYCAKAVDTAVVTFFDYWGQGTLVTVSS VL: EIVMTQSPVTLSVSPGERATLSCRASQSVSSNLAWYQQKPGQAPRLLIYSASTRATGIPARFSGSGSGTEFTLTISSLQSEDLAVYYCQQYSNWPFTFGPGTKVDIK
